Assay: soluble on expression in E. coli; label from the status in PepcDB or PDB records
For “GVRFAFGPTVDFHFGENYAFSTGAWYLSSRAGLSQSVPGLTYKEIVSLQSVQIPVTFKAYTNEIATNMKLYFQLGGLATFNFYEKFKESTPSNSSYDDKYNVFDVSLYVGAGVSYKIGESNALFGGFYYSRGLMNMLDGSTIPGTSDRYKKAAKYNNDLVGLEVGITF”, the “soluble on expression in E. coli” value was “not soluble”. For “GYALTEGEDYLVLDKPIPQEQSGKIEVLEFFGYFCVHCHHFDPLLLKLGKALPSDAYLRTEHVVWQPEMLGLARMAAAVNLSGLKYQANPAVFKAVYEQKIRLENRSVAGKWALSQKGFDGKKLMRAYDSPEAAAAALKMQKLTEQYRIDSTPTVIVGGKYRVIFNNGFDGGVHTIKELVAKVREERKRQTPAVQK”, the “soluble on expression in E. coli” value was “soluble”. For “GYITVGNENSTPIELYYEDQGSGQPVVLIHGYPLDGHSWERQTRELLAQGYRVITYDRRGFGGSSKVNTGYDYDTFAADLHTVLETLDLRDVVLVGFSMGTGELARYVARYGHERVAKLAFLASLEPFLVQRDDNPEGVPQEVFDGIEAAAKGDRFAWFTDFYKNFYNLDENLGSRISEQAVTGSWNVAIGSAPVAAYAVVPAWIEDFRSDVEAVRAAGKPTLILHGTKDNILPIDATARRFHQAVPEADYVEVEGAPHGLLWTHADEVNAALKTFLAK”, the “soluble on expression in E. coli” value was “soluble”. For “GYWGCKDLNSVFVYANQAYGELIGLKRAEDCIGRTDFEMPSPTAACAAEFQQQDRYVIETGHSVKVLDIHPYPDGHWHAHIFTKTPWRDSQGKIQGTIFFGQDLT”, the “soluble on expression in E. coli” value was “not soluble”. In the case of “HAIFEREGNNLYCEVPINFTMAALGGEIEVPTLDGRVNLKIPGETQTGKLFRMRGKGVKSVRGGAQGDLLCRVVVETPVGLNEKQKQLLKELQESFGGPTGENN”, the “soluble on expression in E. coli” value is reported as “not soluble”. With “HDTILFFSNKGKVYRAKGYEIPEYGRTAKGIPIINLLEVEKGEWINAIIPVTE” the “soluble on expression in E. coli” value was “not soluble”. With “HGDHMHNHDTKMDTMSKDMMSMEKIVVPVQQLDPQNGNKDVGTVEITESAYGLVFTPKLHDLAHGLHGFHIHEKPSCEPKEKDGKLVAGLGAGGHWDPKQTQKHGYPWSDDAHMGDLPALFVMHDGSATTPVLAPRLKKLAEVKGHSLMIHAGGDNHSDHPAPLGGGGPRMACGVIK” the “soluble on expression in E. coli” value was “soluble”. With “HHHHHHSSGLVPRGSHMRNYCTKTFGSAFSVTVVPTLKDNFSYLINDHTTHTLAAVDVNADYKPILTYIEEHLKQQGNADVTYTFSTILSTHKHWDHSGGNAKLKAELEAMNSTVPVVVVGGANDSIPAVTKPVREGDRVQVGDLSVEVIDAPCHTRGHVLYKVQHPQHPNDGVALFTGDTMFIAGIGAFFEGDEKDMCRAMEKVYHIHKGNDYALDKVTFIFPGHEYTSGFMTFSEKTFPDRASDDLAFIQAQRAKYAAAVKTGDPSVPSSLAEEKRQNLFLRVADPAFVAKMNQGNAHALMMYLYNACD” the “soluble on expression in E. coli” value was “soluble”. With “HHHHHHSSGLVPRGSHMTAQTVTGAVAAAQLGATLPHEHVIFGYPGYAGDVTLGPFDHAAALASCTETARALLARGIQTVVDATPNGCGRNPAFLREVSEATGLQILCATGFYYEGGGATTYFKFRASLGDAESEIYEMMRTEVTEGIAGTGIRAGVIKLASSRDAITPYEQLFFRAAARVQRETGVPIITHTQEGQQGPQQAELLTSLGADPARIMIGHMDGNTDPAYHRETLRHGVSIAFDRIGLQGMVGTPTDAERLSVLTTLLGEGYADRLLLSHDSIWHWLGRPPAIPEAALPAVKDWHPLHISDDILPDLRRRGITEEQVGQMTVGNPARLFG” the “soluble on expression in E. coli” value was “soluble”. For “HMKIAIFGTVGAGKSTISAEISKKLGYEIFKEPVEENPYFEQYYKDLKKTVFKMQIYMLTARSKQLKQAKNLENIIFDRTLLEDPIFMKVNYDLNNVDQTDYNTYIDFYNNVVLENLKIPENKLSFDIVIYLRVSTKTAISRIKKRGRSEELLIGEEYWETLNKNYEEFYKQNVYDFPFFVVDAELDVKTQIELIMNKLNSIKNPN”, the “soluble on expression in E. coli” value was “soluble”. For “HMNFKMEHQNKRSPLHAAAEAGHVDICHMLVQAGANIDTCSEDQRTPLMEAAENNHLEAVKYLIKAGALVDPKDAEGSTCLHLAAKKGHYEVVQYLLSNGQMDVNCQDDGGWTPMIWATEYKHVDLVKLLLSKGSDINIRDNEENICLHWAAFSGCVDIAEILLAAKCDLHAVNIHGDSPLHIAARENRYDCVVLFLSRDSDVTLKNKEGETPLQCASLNSQVWSALQMSKALQDSA”, the “soluble on expression in E. coli” value was “soluble”. For “HMSSGSAGLSSLHRTYSQDCSFKNSMYHVGDYVYVEPAEANLQPHIVCIERLWEDSAGEKWLYGCWFYRPNETFHLATRKFLEKEVFKSDYYNKVPVSKILGKCVVMFVKEYFKLCPENFRDEDVYVCESRYSAKTKSFKKIKLWTMPVSSVRFVPRDVPLPVVRVASVFANTD”, the “soluble on expression in E. coli” value was “soluble”. In the case of “HPEKCSECSYSCSSKAALRIHERIHCTDRPFKCNYCSFDTKQPSNLSKHMKKFHGDM”, the “soluble on expression in E. coli” value is reported as “soluble”. With “HRIPAYTLTDQNGDAFKSTAYDSSFKVYDFVFTRCGSICPEMTTQMIRVQEAFKHDKDVVLISLTVDPEHDSSEVLQRYAKQYNAIPGKWYFLTGEKDTIYTLGQRQFFLTAKQNEEDLTDFLHSERIVLVDKNGWIRGYYTGTNEKDVDRLITELKVLQKIERDAKRK” the “soluble on expression in E. coli” value was “not soluble”. In the case of “HSHSDKHPVTWQPSKDGDRLIGRILLNKRLKDGSVPRDSGAMLGLKVVGGKMTESGRLCAFITKVKKGSLADTVGHLRPGDEVLEWNGRLLQGATFEEVYNIILESKPEPQVELVVSR”, the “soluble on expression in E. coli” value is reported as “soluble”. With “HVFVVDFNGSIDAKEVSSLREEVSAILSVAKPEDEVFVRLESGGGMVHGYGLASSQLDRIRQHNIPLTVSVDKVAASGGYMMACVANNIISAPFAILGSIGVIAQVPNFNKLLKKHDIDFEQFTAGEFKRTVTMFGENTEKGKEKFIEELEETHVLFKNFVSERRPSLDIVKVATGEHWFGTTALELGLVDSIQTSDD” the “soluble on expression in E. coli” value was “not soluble”. In the case of “IASPQAGMAALTGTLAGTRQGMISFTQQNEQEADRIGIQVLQRAGFDPQAMPSFLEKLLDQARYSTRPPEILLTHPLPESRLADARNRANQMRPVVVQSSADFYFAKARALGMYNSGRNQLTSDLLDQWSKGNVHQQHAAQYGRALQAMEASKYDEARKTLQPLLSAEPNNAWYLDLATDIDLGQKRANDAINRLKNARDLRVNPVLQLNLANAYLQGGQPKAAETILNRYTFSHKDDGNGWDLLAQAEAALNNRDQELAARAESYALAGRLDQAISLLSSASAQAKLGCQQQARYDARIDQLRQLQERFKPYTK”, the “soluble on expression in E. coli” value is reported as “not soluble”. In the case of “ICMNVENKVTHKPLEFNYTDKYCGNVKNLISCKLYQHALTLIDSFRKDKTI”, the “soluble on expression in E. coli” value is reported as “not soluble”. For “IEKSTQYMAKRRIGALISVARDTGMDDYIETGIPLNAKISSQLLINIFIPNTPLHDGAVIIKGNEIASAASYLPLSDSPFLSKELGTRHRAALGISEVTDSITIVVSEETGGISLTKGGELF”, the “soluble on expression in E. coli” value was “not soluble”. In the case of “IGDFEYYIDGMLTFNTNKITEMDELTPDYAYQARTGNRIDQSQLLIWKQWASNPDLIPESYEDAVANPQKYPWNAAGKYKLGNAVFQDTNGDRKIDSYDKVPTGYTNIPELIPTIRLGFSWKGFDARAVLTAYLNRTVPCRENMDYGFGWGGTSTHEITNTWGYYTDDPTDPRNINAKYPRLSTSFSDLDRNYPYNESTIWVVNGDFLSLRNVEVGYSLPARLISKVNMTKCRLYFSGYNLCNWSHLPKGFDPENPTNYIWAYPKTRSFTFGVNIGF”, the “soluble on expression in E. coli” value is reported as “not soluble”. For “IGEFSYHVNGNFSIIKNKVISLGVGDVEQKSGMIGNGSDLFLGYPMNMFYGYKTDGVFLTDDEVKEWHDQSKIAPNSKAGDLRYVDISGDGKVDESDKTYLGSKIPQYTFGLGLGAEYKGFDFNILLQGVAKVKGQLTNYAGYAFFQEGNIQKWQAEETWTNNQSNRYPKYPRLEVMSNAGSNNTLGSDFWILDASYLKVRNIQLGYTLPKRITQKFGSSNLRFYISLDNPFSISGYRKGWDPEINTDGSYYPILSTYTFGLTLKF”, the “soluble on expression in E. coli” value was “not soluble”. With “IGEVSYGAKFVLSDDQQKILRYPNDSYDVGSYYKGEHLNDIWGLTTIGIAKSQEEMDAHLAKVDQSSVGTNWGVGDIMYADLDGDGKISNGTNKLGDTGDYRIIGNSTPRFKYGITLDAAWKGFDFSIFMQGIGKRDLWLDGCYFWGANGQGNEWQSTGFAEHWDFFRPEGDPLGANLNSYYPRVNFSGDRNTKVQTRYLQNGAYLRLKNVQLGYTLPRVWTEKAGISSVRVYVSGDNLATITSLSKIFDPEATGSLAGTGSGKLYPLQRVISVGVNVNF” the “soluble on expression in E. coli” value was “not soluble”. With “IHFTTEVITSRIEPANRYVAEKLRITPGQDILYLERLRSIGDEKAMLIENRINIELCPGIVEIDFNQHNLFPTIESLSKRKIRYSESRYAARLIGNERGHFLDISEDAPVLHLEQLVFFSRELPVEFGNVWLKG” the “soluble on expression in E. coli” value was “not soluble”. In the case of “IHPVDSSERVLILGAGRTAEALVRDMRRTGAFVPVGFIDDAVYLRGAKIQGLNVLGRLEEVSTIARETAAKLLVIAIPSLDAAGMQRVVAMCESTGLPFRMVPKLIDVLEGRTLPCQLKEVSIEDLLNRKPVIPDWRLIRSWLSG”, the “soluble on expression in E. coli” value is reported as “not soluble”. In the case of “IIEEEQQSLTGRLNIAVLPTIAPYLLPRVFPIWKKELAGLEIHVSEMQTSRCLASLLSGEIDMAIIASKAETEGLEDDLLYYEEFLGYVSRCEPLFEQDVIRTTEVNPHRLWLLDEGHCFRDQLVRFCQMKGLHERQTAYSGGSMEAFMRLVESGQGITFIPQLTVEQLSPSQKELVRPFGMPRPVREVRLAVRQDYSRRKLREQLIGLLRSAVPSDMHKLQTGQHLAHHHH”, the “soluble on expression in E. coli” value is reported as “soluble”. With “IIHREYPRHHVLHRFTPASKPNGKKILITHGWMSRAAYMVRLIRLLHKEGYEVYAIDFPAHGEAKGIQLPWTDAIAIIKETINQFGPFYGLVGHSFGGSMILNTLNLAGQLPEWQLNHKPERAILIASPTQMRTPVNKIARRFKLSGQAYLQLRQLIRQQASVDPERIRLSHFISQAPDTYFLCIHGELDATINPKESINFCKYYKNARLSLLPDADHVSVLMDERVEQIALDFLNR” the “soluble on expression in E. coli” value was “not soluble”. For “IKNDGLKLDAYYLPAGKATNKTVIIIHGFRRNKTGMKAYTDMFANLGYNTLTVDNRGHGKSQGHYVGFGWLDKGDVEAWIRYLISKNKNVEIVPFGISMGGATVAMMSGDSLPSNVKALIEDSGYTSVEAEITYEAKAMYNLPQKPFVSTVSLISKLFAGYSYTEASSIKQVEKNTRPMLFMHGGADSYVPTKMVYQLYNADKDPEKQLWIAPNSGHVQGFGDHPSAYTAQIKKFLNLYFK”, the “soluble on expression in E. coli” value was “not soluble”. For “IKVQIEKQLSERILLIDGGMGTMIQGYKFEEEDYRGERFNKWHCDLKGNNDLLVLSQPQIIRDIHEAYLEAGADILETNTFNATTIAMADYDMESLSEEINFEAAKLAREVADKWTEKTPNKPRYVAGVLGPTNRTCSISPDVNDPGFRNVSFDELVEAYSESTRALIRGGSDLILIETIFDTLNAKACSFAVESVFEELDITLPVMISGTITDASGRTLSGQTTEAFYNALRHVKPISFGLNCALGPDELREYVSDLSRISECYVSAHPNAGLPNAFGEYDLSPEDMAEHVAEWASSGFLNLIGGCCGTTPEHIRQMALVVEGVKPRQLPELPVACRLSGLEPLTIEKDSLFINVGERTNVTGSARF”, the “soluble on expression in E. coli” value was “not soluble”. For “ILLLLLSLFLGLSSQAQEDSLQANRYVMRATLYGAGFTNILDTYLSPMEYTGPEIRILRESMRMTKLMNGNVSVQSLFQANLSLTENKAETSNEMAGMVNWNYALHYQFRLTENLKILAGPMLDLNGGFIYNMRNSNNPAQAKAYVNLAASGMVIYRFHIGNYPLIARYQANLPVMGIMFSPEYGQSYYEIFSLKNGGKNVLFTSLHNQPSLRQLVTLDFPIRSVNMRFGYLCDIQQAKVNNLKSHIWSHAFMIGFVKNFYLLKGKNKVAMPSRVSPY”, the “soluble on expression in E. coli” value was “not soluble”. For “ILLPSKPRFIFQDVTVFNFNVSGNPSDLNTPVVQFNLSFRNPNANIRIYYDTLDVYAFYGNGSQQIIIPTPMPSTYQGHKEDSVWSPYIPVVPYNALYLDDQHHSRDGNMLMLHLDGRISWLLLGN”, the “soluble on expression in E. coli” value was “not soluble”.

Reference: the DeepSol protein solubility set
